# Data taken from patent publication US20140256626A1, “PEG CONJUGATES OF EXENATIDE” (priority 2011, published 2014).
# Target: human GLP-1 receptor (human) (UniProt P43220)
# Test: cell-based or functional assay
# Sequence of human GLP-1 receptor (human) (P43220 24-463 limits assumed): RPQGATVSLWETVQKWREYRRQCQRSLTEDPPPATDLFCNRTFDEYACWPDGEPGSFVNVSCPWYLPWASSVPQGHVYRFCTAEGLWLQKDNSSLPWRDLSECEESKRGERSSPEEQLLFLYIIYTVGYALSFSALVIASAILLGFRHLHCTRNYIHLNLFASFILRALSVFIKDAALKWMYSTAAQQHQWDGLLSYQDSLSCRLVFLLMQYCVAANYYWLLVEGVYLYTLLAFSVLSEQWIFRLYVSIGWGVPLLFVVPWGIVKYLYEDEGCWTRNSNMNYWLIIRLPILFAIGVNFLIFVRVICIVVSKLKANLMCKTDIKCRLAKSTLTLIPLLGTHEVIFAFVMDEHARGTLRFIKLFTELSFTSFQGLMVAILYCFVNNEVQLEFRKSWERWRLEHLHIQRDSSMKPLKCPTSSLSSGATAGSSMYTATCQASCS
Substance,EC50 (DiscoveRx GLP1R cAMP Hunter assay) [nM],fold decrease of biological activity against free exenatide [fold]
Exenatide (exendin-4) (peptide),0.066,
"Stably-linked N-[6-azidohexyloxy]-exenatide conjugate of Example 5 (non-releasable control conjugate, R1 = absent, conjugated to DBCO-Lys(DEAC)-[GL4-400] 40 kDa four-branched PEG) (peptide)",> 100,> 10000
